What was measured:
[1] = target: T1, soluble form of GPC3 core protein (human, UniProt P51654 25-563); experiment: competitive ELISA on coated soluble GPC3 core protein; labelled competitor biotin-M3C11;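 note: Biotin-labelled antibody added as 10 µL at 10 µg/mL for 1 h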
T1 construct: not shown: His tag added to the C-terminus
Target sequence in this assay (P51654 25-563 S495A/S509A, form in doubt): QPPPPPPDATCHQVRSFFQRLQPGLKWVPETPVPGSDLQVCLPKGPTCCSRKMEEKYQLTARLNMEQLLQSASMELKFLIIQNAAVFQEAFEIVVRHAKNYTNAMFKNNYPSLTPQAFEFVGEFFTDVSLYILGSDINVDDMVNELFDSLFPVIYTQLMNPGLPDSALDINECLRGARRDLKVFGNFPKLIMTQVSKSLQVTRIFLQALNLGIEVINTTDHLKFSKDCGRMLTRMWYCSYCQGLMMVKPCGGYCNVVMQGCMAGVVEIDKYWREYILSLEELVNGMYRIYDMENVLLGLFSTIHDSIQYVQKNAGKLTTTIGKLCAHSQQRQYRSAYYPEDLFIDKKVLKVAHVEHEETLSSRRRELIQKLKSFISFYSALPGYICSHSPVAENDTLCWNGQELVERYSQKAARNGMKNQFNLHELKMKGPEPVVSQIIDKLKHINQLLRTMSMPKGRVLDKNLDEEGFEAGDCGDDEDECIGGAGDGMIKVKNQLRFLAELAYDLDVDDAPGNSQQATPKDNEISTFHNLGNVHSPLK

[2] = target: T1, soluble form of GPC3 core protein; experiment: competitive ELISA on coated soluble GPC3 core protein; labelled competitor biotin-L9G11;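 note: Biotin-labelled antibody added as 10 µL at 10 µg/mL for 1 h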
Description: (§1) The obtained antibodies were classified according to the epitopes by a competitive ELISA. The antibodies were biotinylated using a Biotin Labeling Kit (Roche). The soluble form of GPC3 core protein was diluted to 1 μg/mL with the coating buffer and added to a plate at 100 μL/well and stored at 4° C. overnight to coat the plate. On the next day, 200 μL of the substrate buffer was added for blocking. The plate was left at 4° C. overnight or longer and an anti-GPC3 antibody was added to the plate at 100 μL/well and reacted at room temperature for 1 hour. After that, without washing of the plate, 10 μL of 10 μg/mL biotin-labeled anti-GPC3 antibody was added and further reacted for 1 hour. The plate was washed with 300 μL/well of the rinse buffer for 3 times. AP-streptavidin conjugate (ZYMED) was diluted to 1000-fold with the dilution buffer and added at 100 μL/well and reacted at room temperature for 1 hour. The plate was washed with 300 μL/well of the rinse buffer for 5 times.

full-length human GPC3 [3] = target: T2, full-length human GPC3 (human, UniProt P51654 25-554); experiment: flow cytometry, antibody at 5 µg/mL, HuH-7 cells
T2 construct: On CHO (DXB11) or SK-HEP-1 (SK-03) transfectants; also used here for the GPC3 on the hepatoma lines HepG2 and HuH-7; also called human glypican 3
T2 sequence (P51654 25-554 limits assumed): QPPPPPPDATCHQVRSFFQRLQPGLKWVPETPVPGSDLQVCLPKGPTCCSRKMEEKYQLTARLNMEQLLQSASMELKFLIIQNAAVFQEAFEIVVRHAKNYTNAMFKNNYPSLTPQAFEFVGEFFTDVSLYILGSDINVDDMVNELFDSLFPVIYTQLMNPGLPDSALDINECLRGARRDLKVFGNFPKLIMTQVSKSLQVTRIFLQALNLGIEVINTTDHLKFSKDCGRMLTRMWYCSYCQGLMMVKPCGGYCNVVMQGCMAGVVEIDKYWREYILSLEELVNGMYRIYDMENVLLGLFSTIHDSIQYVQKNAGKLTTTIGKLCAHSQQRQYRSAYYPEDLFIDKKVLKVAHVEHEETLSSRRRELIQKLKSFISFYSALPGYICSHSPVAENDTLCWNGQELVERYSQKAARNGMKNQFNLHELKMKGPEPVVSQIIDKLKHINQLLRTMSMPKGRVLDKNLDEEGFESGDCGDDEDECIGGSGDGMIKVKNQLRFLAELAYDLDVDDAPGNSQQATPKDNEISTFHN
Description: (§2) Cells were dissociated with 1 mM EDTA pH 8.0 (GIBCO)/PBS and suspended in FACS buffer (1% FBS/PBS) at 1×10⁶ cells/mL. The suspension was dispensed to a Multiscreen-HV Filter Plate (Millipore) at 100 μL/well and the supernatant was removed by centrifugation. An anti-GPC3 antibody diluted to an appropriate concentration was added and reacted on ice for 30 minutes. The cells were washed once with FACS buffer and an FITC-labeled anti-mouse IgG antibody was added and reacted on ice for 30 minutes. After the reaction, the cells were centrifuged at 500 rpm for 1 minute, and the supernatant was removed. The cells were suspended in 400 μL of FACS buffer and subjected to flow cytometry. EPICS ELITE ESP (Beckman Coulter) was used as a flow cytometer. A gate was set on the living cell population with the histogram of forward scatter and side scatter.

full-length human GPC3 [4] = target: T2, full-length human GPC3; experiment: flow cytometry, antibody at 5 µg/mL, CHO cells expressing human GPC3 (column CHO/human GPC3)
Description: as §2

full-length human GPC3 [5] = target: T2, full-length human GPC3; experiment: flow cytometry, antibody at 5 µg/mL, HepG2 cells
Description: as §2

full-length human GPC3 [6] = target: T2, full-length human GPC3; experiment: BIACORE; the form of GPC3 used is not given
[7] = target: T1, soluble form of GPC3 core protein; experiment: competitive ELISA on coated soluble GPC3 core protein; labelled competitor biotin-M18D4;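 note: Biotin-labelled antibody added as 10 µL at 10 µg/mL for 1 h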
Target sequence in this assay (P51654 25-563 S495A/S509A, form in doubt): as the sequence (P51654 25-563 S495A/S509A, form in doubt) above
Description: as §1

[8] = target: T1, soluble form of GPC3 core protein; experiment: competitive ELISA on coated soluble GPC3 core protein; labelled competitor biotin-M6B1;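 note: Biotin-labelled antibody added as 10 µL at 10 µg/mL for 1 h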
Target sequence in this assay (P51654 25-563 S495A/S509A, form in doubt): as above
Description: (§3) The antibodies were biotinylated using a Biotin Labeling Kit (Roche). The soluble form of GPC3 core protein was diluted to 1 μg/mL with the coating buffer and added to a plate at 100 μL/well and stored at 4° C. overnight to coat the plate. On the next day, 200 μL of the substrate buffer was added for blocking. The plate was left at 4° C. overnight or longer and an anti-GPC3 antibody was added to the plate at 100 μL/well and reacted at room temperature for 1 hour. After that, without washing of the plate, 10 μL of 10 μg/mL biotin-labeled anti-GPC3 antibody was added and further reacted for 1 hour. The plate was washed with 300 μL/well of the rinse buffer for 3 times. AP-streptavidin conjugate (ZYMED) was diluted to 1000-fold with the dilution buffer and added at 100 μL/well and reacted at room temperature for 1 hour. The plate was washed with 300 μL/well of the rinse buffer for 5 times.

[9] = target: T1, soluble form of GPC3 core protein; experiment: competitive ELISA on coated soluble GPC3 core protein; labelled competitor biotin-M10D2;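 note: Biotin-labelled antibody added as 10 µL at 10 µg/mL for 1 h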
Target sequence in this assay (P51654 25-563 S495A/S509A, form in doubt): as above
Description: as §3

[10] = target: T1, soluble form of GPC3 core protein; experiment: ELISA on plate coated with soluble GPC3 core protein
Target sequence in this assay (P51654 25-563 S495A/S509A, form in doubt): as above
Description: In order to conveniently evaluate the binding activity of the anti-GPC3 antibody thus obtained, concentration-dependent binding of the antibody was detected against an immunoplate containing the soluble form of GPC3 core protein immobilized thereon. A 3-fold dilution series (12 dilutions in total) of the purified antibody at a concentration of 10 μg/mL was added, and an anti-mouse IgG antibody was added as the secondary antibody. […] Since the degree of color development varies depending on the color development time, data measured precisely after 1 hour was analyzed. […] The correlation between the concentration of antibody and the degree of color development was plotted and an approximate curve was obtained by using an analyzing software, GraphPad Prism. Its EC50 value was determined as the index of the binding activity.

[11] = target: T1, soluble form of GPC3 core protein; experiment: competitive ELISA on coated soluble GPC3 core protein; labelled competitor biotin-M1E7;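 note: Biotin-labelled antibody added as 10 µL at 10 µg/mL for 1 h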
Target sequence in this assay (P51654 25-563 S495A/S509A, form in doubt): as above
Description: as §3

[12] = target: T1, soluble form of GPC3 core protein; experiment: competitive ELISA on coated soluble GPC3 core protein; labelled competitor biotin-M11F1;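 note: Biotin-labelled antibody added as 10 µL at 10 µg/mL for 1 h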
Description: as §3

[13] = target: T1, soluble form of GPC3 core protein; experiment: competitive ELISA on coated soluble GPC3 core protein; labelled competitor biotin-M5B9;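 note: Biotin-labelled antibody added as 10 µL at 10 µg/mL for 1 h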
Description: as §3

[14] = target: T1, soluble form of GPC3 core protein; experiment: ELISA on GPC3 (the legend says only GPC3; the filing's ELISA uses plates coated with soluble GPC3 core protein) [upper panel]

Row | Binder | Inhibition of the binding of indicated biotin-Mab to sGPC3 core (%) [1] [%] | Inhibition of the binding of indicated biotin-Mab to sGPC3 core (%) [2] [%] | FACS X-mode value of the histogram (full-length human GPC3 [3]) | FACS X-mode value of the histogram (full-length human GPC3 [4]) | FACS X-mode value of the histogram (full-length human GPC3 [5]) | Kd (full-length human GPC3 [6]) [nM] | koff (full-length human GPC3 [6]) [s⁻¹] | kon (full-length human GPC3 [6]) [M⁻¹ s⁻¹] | Inhibition of the binding of indicated biotin-Mab to sGPC3 core (%) [7] [%] | Inhibition of the binding of indicated biotin-Mab to sGPC3 core (%) [8] [%] | Inhibition of the binding of indicated biotin-Mab to sGPC3 core (%) [9] [%] | EC50 [10] [nM] | Inhibition of the binding of indicated biotin-Mab to sGPC3 core (%) [11] [%] | Inhibition of the binding of indicated biotin-Mab to sGPC3 core (%) [12] [%] | Inhibition of the binding of indicated biotin-Mab to sGPC3 core (%) [13] [%] | EC50 (read off the curve) [14] [µg/mL]
1 | M10D2 (antibody, V domains shown, Mouse monoclonal from hybridoma) VH: QVQLQQPGAELVKPGASVKLSCKASGYTFTSYWMHWVKQRPGQGLEWIGEIDPSDSYTYYNQKFRGKATLTVDKSSNTAYMQLSSLTSEDSAVYYCSRSNLGDGHYRFPAFPYWGQGTLVTVSA VL: DIVLTQSPATLSVTPGDRVSLSCRASHSISNFLHWYPQKSHESPRLLIKYASQSISGIPSRFSGNGSGTDFTLSINSVETEDFGMYFCQQSNIWSLTFGAGTKLELK | -7.7 | 7.2 | 3 | 20 | 29 | 4.7 | 0.000496 | 110000 | -21.6 | -5.9 | 79.2 | 1.04 | 0.6 | 7.8 | -10.3 | –
2 | M5B9 (antibody, V domains shown, Mouse monoclonal from hybridoma) VH: EVQLQQSGTVLARPGASVKMSCKASGYTFTGYWMHWVKQRPGQGLEWIGAIYPGNSDTNYNQKFKGKAKLTAVTSASTAYMELSSLTNEDAAVYHCTRSGDLTGGLAYWGQGTLVTVSA VL: DIVMTQAAFSNPVTLGTSASISCRSSKSLLHSNGITYLYWFLQKPGQSPQLLIYQMSNLASGVPDRFSSSGSGTDFTLRISRVEAEDVGVYYCAQNLELPYTFGSGTKLEIK | 0.1 | 10.3 | 2 | 25 | 23 | 23.5 | 0.00139 | 60000 | 77.3 | 23.2 | 13.4 | 1.13 | 2.7 | 5.3 | 77.3 | –
3 | M13B3 (antibody, V domains shown, Mouse monoclonal from hybridoma) VH: EVHLVESGGGLVKPGGSLKLSCAASGFTFSNYAMSWVRQTPEKRLEWVAAINNNGDDTYYLDTVKDRFTISRDNAKNTLYLQMSSLRSEDTALYYCVRQGGAYWGQGTLVTVSA VL: not shown | 71.3 | 24.9 | – | – | – | – | – | – | 2.7 | 9.3 | 22.3 | 0.25 | 95.7 | 15.6 | -1.8 | –
4 | M6B1 (antibody, V domains shown, Mouse monoclonal from hybridoma) VH: EVQLVESGGDLVKPGGSLKLSCAASGFTFSSYAMSWVRQTPEKRLEWVAAINSNGGTTYYPDTMKDRFTISRDNAKNTLYLQMSSLRSEDSALYYCTRHNGGYENYGWFAYWGQGTLVTVSA VL: DIQMTQSPSSLSASLGGKVTITCKASQDINKNIIWYQHKPGKGPRLLIWYTSTLQPGIPSRFSGSGSGRDYSFSISNLEPEDIATYYCLQYDNLPRTFGGGTKLEIK | -5.7 | 1.1 | 3 | 37 | 34 | – | – | – | 51.9 | 85.6 | 6.7 | 5.51 | -2.7 | 13.9 | 44.4 | –

Results, then the binder that gave them:

Row | Inhibition of the binding of indicated biotin-Mab to sGPC3 core (%) [1] [%] | Inhibition of the binding of indicated biotin-Mab to sGPC3 core (%) [2] [%] | FACS X-mode value of the histogram (full-length human GPC3 [3]) | FACS X-mode value of the histogram (full-length human GPC3 [4]) | FACS X-mode value of the histogram (full-length human GPC3 [5]) | Kd (full-length human GPC3 [6]) [nM] | koff (full-length human GPC3 [6]) [s⁻¹] | kon (full-length human GPC3 [6]) [M⁻¹ s⁻¹] | Inhibition of the binding of indicated biotin-Mab to sGPC3 core (%) [7] [%] | Inhibition of the binding of indicated biotin-Mab to sGPC3 core (%) [8] [%] | Inhibition of the binding of indicated biotin-Mab to sGPC3 core (%) [9] [%] | EC50 [10] [nM] | Inhibition of the binding of indicated biotin-Mab to sGPC3 core (%) [11] [%] | Inhibition of the binding of indicated biotin-Mab to sGPC3 core (%) [12] [%] | Inhibition of the binding of indicated biotin-Mab to sGPC3 core (%) [13] [%] | EC50 (read off the curve) [14] [µg/mL] | Binder
5 | 0.2 | 6.7 | 2 | 22 | 20 | 6.2 | 0.000496 | 80000 | 89 | 38.6 | 19.1 | 0.85 | 0.5 | -0.3 | 89.4 | – | M18D4 (antibody, human IgG1, kappa, V domains shown, Mouse monoclonal from hybridoma) VH: EVQLQQSGTVLARPGASVKMSCKASGYTFTGYWMRWVKQRPGQGLEWIGAIYPGNSDTTYNQKFKGKAKLTAVTSVSTAYMELSSLTNEDSAVYYCSRSGDLTGGFAYWGQGTLVTVST VL: DIVMTQAAFSNPVTLGTSTSISCRSSKSLLHSNGITYLYWYLQKPGQSPQLLIYQMSNLASGVPDRFSSSGSGTDFTLRISRVEAEDVGVYYCAQNLELPYTFGSGTKLEIKR
6 | – | – | – | – | – | – | – | – | – | – | – | – | – | – | – | ~0.01 | GC33 mouse-human chimeric antibody (antibody, V domains shown, also called chimeric antibody GC33; mouse/mouse) VH: QVQLQQSGAELVRPGASVKLSCKASGYTFTDYEMHWVKQTPVHGLKWIGALDPKTGDTAYSQKFKGKATLTADKSSSTAYMELRSLTSEDSAVYYCTRFYSYTYWGQGTLVTVSA VL: DVVMTQTPLSLPVSLGDQASISCRSSQSLVHSNGNTYLHWYLQKPGQSPKLLIYKVSNRFSGVPDRFSGSGSGTDFTLKISRVEAEDLGVYFCSQNTHVPPTFGSGTKLEIK
7 | – | – | – | – | – | – | – | – | – | – | – | – | – | – | – | ~0.01 | humanized GC33 H chain ver.c / L chain ver.a (antibody, V domains shown) VH: QVQLVESGAEVKKPGASVKVSCKASGYTFTDYEMHWVRQAPGQGLEWMGALDPKTGDTAYSQKFKGRVTLTADESTSTAYMELSSLRSEDTAVYYCTRFYSYTYWGQGTLVTVSS VL: DVVMTQSPLSLPVTPGEPASISCRSSQSLVHSNGNTYLHWYLQKPGQSPQLLIYKVSNRFSGVPDRFSGSGSGTDFTLKISRVEAEDVGVYYCSQNTHVPPTFGQGTKLEIK
8 | – | – | – | – | – | – | – | – | – | – | – | – | – | – | – | ~0.1 | humanized GC33 ver.a/ver.a (antibody, V domains shown, Human IgG (HEFg gamma1 vector) and human kappa constant regions) VH: QVQLVESGAEVKKPGASVKVSCKASGYTFTDYEMHWVRQAPGQGLEWMGALDPKTGDTAYSQKFKGRVTITADESTSTAYMELSSLRSEDTAVYYCARFYSYTYWGQGTLVTVSS VL: DVVMTQSPLSLPVTPGEPASISCRSSQSLVHSNGNTYLHWYLQKPGQSPQLLIYKVSNRFSGVPDRFSGSGSGTDFTLKISRVEAEDVGVYYCSQNTHVPPTFGQGTKLEIK
9 | – | – | – | – | – | – | – | – | – | – | – | – | – | – | – | ~0.01 | humanized GC33 H chain ver.f / L chain ver.a (antibody, V domains shown) VH: QVQLVESGAEVKKPGASVKVSCKASGYTFTDYEMHWVRQAPGQGLEWMGALDPKTGDTAYSQKFKGRVTLTADKSTSTAYMELSSLRSEDTAVYYCTRFYSYTYWGQGTLVTVSS VL: DVVMTQSPLSLPVTPGEPASISCRSSQSLVHSNGNTYLHWYLQKPGQSPQLLIYKVSNRFSGVPDRFSGSGSGTDFTLKISRVEAEDVGVYYCSQNTHVPPTFGQGTKLEIK
